# Source: US20230235048A1 (PROTHENA BIOSCIENCES, published 2023)
# T1: extracellular domain (ECD) of recombinant human Sortilin with a C-terminal HIS tag (ECD-huSortilin-HIS) (human, UniProt Q99523 78-755)
# T1 construct: Bought (R&D Systems); also called human sortilin-ECD; not shown: C-terminal HIS tag
# T1 sequence: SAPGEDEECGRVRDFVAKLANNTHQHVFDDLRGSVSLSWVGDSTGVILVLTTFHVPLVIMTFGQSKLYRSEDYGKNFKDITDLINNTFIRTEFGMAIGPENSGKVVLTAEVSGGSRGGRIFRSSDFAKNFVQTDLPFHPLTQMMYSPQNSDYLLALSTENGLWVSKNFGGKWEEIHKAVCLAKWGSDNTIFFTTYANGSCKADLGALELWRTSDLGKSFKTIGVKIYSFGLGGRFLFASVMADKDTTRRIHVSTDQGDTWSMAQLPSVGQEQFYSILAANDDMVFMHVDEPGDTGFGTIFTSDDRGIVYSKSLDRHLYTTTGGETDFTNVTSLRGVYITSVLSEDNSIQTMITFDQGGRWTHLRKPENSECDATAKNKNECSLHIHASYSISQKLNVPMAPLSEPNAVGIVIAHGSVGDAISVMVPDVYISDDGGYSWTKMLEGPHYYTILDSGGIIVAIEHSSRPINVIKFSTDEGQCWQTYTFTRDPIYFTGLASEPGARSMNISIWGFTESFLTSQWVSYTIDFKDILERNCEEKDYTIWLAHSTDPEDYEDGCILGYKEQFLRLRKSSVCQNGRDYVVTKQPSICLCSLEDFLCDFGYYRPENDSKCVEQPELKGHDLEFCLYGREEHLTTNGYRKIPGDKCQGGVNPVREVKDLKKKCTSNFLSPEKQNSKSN
# T2: human sortilin on the cell surface (recombinant huSortilin on HEK 293 cells; endogenous on U251MG cells) (human, UniProt Q99523 78-831)
# T2 construct: whole, on cells; also called huSortilin expressing HEK293 cells; cell surface huSortilin
# T2 sequence (looked up): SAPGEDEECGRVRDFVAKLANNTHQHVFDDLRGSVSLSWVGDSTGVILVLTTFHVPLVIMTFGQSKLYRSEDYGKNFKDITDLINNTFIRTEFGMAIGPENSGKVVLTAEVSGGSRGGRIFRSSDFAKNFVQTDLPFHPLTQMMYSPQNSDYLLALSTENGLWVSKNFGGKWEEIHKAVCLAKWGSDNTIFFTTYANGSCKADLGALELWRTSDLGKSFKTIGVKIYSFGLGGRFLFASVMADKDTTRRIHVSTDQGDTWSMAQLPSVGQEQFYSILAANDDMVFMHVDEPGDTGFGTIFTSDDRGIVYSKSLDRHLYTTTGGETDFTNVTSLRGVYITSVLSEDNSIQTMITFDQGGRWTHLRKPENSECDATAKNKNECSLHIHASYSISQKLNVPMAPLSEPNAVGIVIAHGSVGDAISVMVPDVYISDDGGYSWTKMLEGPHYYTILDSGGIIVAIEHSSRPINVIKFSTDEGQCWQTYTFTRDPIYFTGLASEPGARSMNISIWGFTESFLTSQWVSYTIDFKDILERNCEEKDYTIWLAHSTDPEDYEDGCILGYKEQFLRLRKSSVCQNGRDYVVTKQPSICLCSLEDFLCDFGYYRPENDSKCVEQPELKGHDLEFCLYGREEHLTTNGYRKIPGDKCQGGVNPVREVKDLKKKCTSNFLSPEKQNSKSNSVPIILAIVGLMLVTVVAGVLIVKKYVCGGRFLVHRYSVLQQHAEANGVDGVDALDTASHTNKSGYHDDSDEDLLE
# Assays:
# [1] = biological target: T1, extracellular domain (ECD) of …; assay: ELISA, ECD-huSortilin-HIS coated at 1 ug/mL, goat anti-human IgG-HRP, chemiluminescence
# Procedure: 384-well ELISA plates were coated with 1 ug/mL recombinant ECD-huSortilin-HIS (20 uL/well) and incubated overnight at 4° C. all plates were blocked with 3% BSA in PBS for 1 hour at room temperature. Plates were then washed with Tris buffered saline containing 0.1% Tween20 (TBST) three times. 20 uL of humanized anti-Sortilin mAbs diluted 3-fold from 20 ug/mL to 0.3 ng/mL in 1% BSA in TBST were added to the wells, incubated for 1 hour at room temperature and then washed as above. Goat anti-human IgG specific-HRP (Jackson Immunoresearch) diluted 1:7000 in 1% BSA in TBST was then added at 20 uL per well to react with the bound antibodies and plates were incubated for 1 hour before being washed as above. Super signal Pico chemiluminescent ELISA substrate (ThermoFisher) was used for detection. 20 uL of substrate was added to each well and Relative Light Units (RLU) were measured immediately using the SpectraMax Paradigm (Molecular Devices). Data was analyzed and EC₅₀ was calculated using graphed Prism.
# [2] = biological target: T1, extracellular domain (ECD) of …; assay: SPR (Biacore T200), mAb captured by anti-human antibody on CM5, Sortilin 0.1-300 nM as analyte, global 1:1 fit
# Procedure: Analysis was performed using a Biacore T200 to compare the binding affinity of chimeric and humanized antibodies to recombinant human Sortilin. Anti-Human antibody was immobilized on sensor chip CM5 (GE Healthcare Life Sciences) via amine coupling, and humanized antibodies (ligand) were captured to a level to ensure a maximum binding of analyte of 50 RU (approximately 100 RU of ligand binding). Various concentrations of Sortilin (ranging from 0.1 nM to 300 nM) were passed over the captured ligand at 50 μL/min in running buffer (HBS+0.05% P-20, 1 mg/mL BSA) for 300s association time and 1200s dissociation time. Regeneration of the chip surface was accomplished by 2 short injections of 3M MgCl. Data was blank subtracted to both a sensor not containing ligand and 0 nM analyte concentration. Analysis was performed using a global 1:1 fit with Biacore Insight Evaluation software (v2.0) with bulk refractive index set to zero RU.
# [3] = biological target: T1, extracellular domain (ECD) of …; assay: SPR (Biacore T200), mAb captured by anti-mouse antibody on CM5, Sortilin 0.1-300 nM as analyte, global 1:1 fit
# Procedure: Analysis was performed using a Biacore T200 to compare the binding affinity of murine anti-huSortilin antibodies to recombinant human Sortilin. Anti-mouse antibody was immobilized on sensor chip CM5 (GE Healthcare Life Sciences) via amine coupling, and mouse antibodies (ligand) were captured to a level to ensure a maximum binding of analyte of 50 RU (approximately 100RU of ligand binding). Various concentrations of Sortilin (ranging from 0.1 nM to 300 nM) were passed over the captured ligand at […] in running buffer (HBS+0.05% P-20, 1 mg/mL BSA) for 180-300s association time and 300-900s dissociation time. Regeneration of the chip surface was accomplished by 2 short injections of 10 mM Glycine-HCl at pH 1.7. Data was blank subtracted to both a sensor not containing ligand and 0 nM analyte concentration. Analysis was performed using a global 1:1 fit with Biacore Insight Evaluation software (v2.0) with bulk refractive index set to zero RU.
# [4] = biological target: T1, extracellular domain (ECD) of …; assay: blocking ELISA, coated ECD-huSortilin-HIS; blocked ligand huPGRN-Biotin
# [5] = biological target: T1, extracellular domain (ECD) of …; assay: ELISA, Ab binding to hSortilin-ECD
# Procedure: Purified anti-huSortilin mAb binding to huSortilin was characterized by ELISA (ELISA protocol as in Example 1) using a 12 point titration of mAb concentration. mAbs were diluted 2-fold from a starting concentration of 67 nM and then added to ECD-huSortilin-HIS coated plates. Data was analyzed and EC₅₀ (nM) was calculated using graphed Prism. Commercially available goat anti-huSortilin (R&D Biosystems) was used as a positive control. Results are depicted in FIG. 8.
# [6] = biological target: T2, human sortilin on the cell surface …; assay: cell-based blocking titration (flow cytometry), huSortilin HEK293 cells; blocked ligand 30 nM huPGRN-Biotin
# Procedure: Cells were cultured using standard methods. […] Cells were then washed twice in PBS+2% FBS and incubated for 30 minutes on ice with 50 uL per well 1:200 Steptavidin-APC (BD biosciences) in PBS+2% FBS. Cells were then washed as above and resuspended in 100 uL PBS+2% FBS. Data was acquired using the BD LSR II and analyzed using FlowJo software version 10.6 and Microsoft excel.
# The cell-based blocking assay was repeated with the top 12 blocking mAbs using a dose titration from 67 nM to 0.4 nM. Blocking assay was carried out as above. Data was analyzed using FlowJo software version 10.6. and GraphPad Prism software.
EC50 [1] [µg/mL],Kd [2] [nM],koff [2] [s⁻¹],kon [2] [M⁻¹ s⁻¹],Kd [3] [nM],% Blocking at 7.4nM mAb [4] [%],EC50 [5] [nM],% Max blocking at 11nM mAb [6] [%],Binder
0.14,2.22,0.00141,637000,–,–,–,–,"humanized 8H24 hu8H24VHv1/hu8H24VLv1 (antibody, V domains shown, Human IgG; also called 8H24H1L1) VH: QAQLVQSGAEVKKPGSSVKVSCKASGYTFTSYSMHWVRQAPGQGLEWIGAIYPGNDATSYNQKFKGRATLTVDKSTSTAYMELSSLRSEDTAVYFCAREGYYGSSFEAWFASWGQGTTVTVSS VL: DVVMTQTPLSLPVTPGEPASISCRSSQSIVHSNGNTYLEWYLQKPGQSPQLLIYKVSNRFSGVPDRFSGSGSGTDFTLKISRVEAEDVGVYYCFQGSHVLPTFGGGTKVEIK"
0.06,2.29,0.00157,684000,–,–,–,–,"humanized 8H24 hu8H24VHv2/hu8H24VLv1 (antibody, V domains shown, Human IgG; also called 8H24H2L1) VH: QAQLVQSGAEVVKPGSSVKVSCKASGYTFTSYSMHWVRQAPGQGLEWIGAIYPGNDATSYNQKFKGRATLTVDKSTSTAYMELSSLRSEDTAVYFCAREGYYGSSFEAWFASWGQGTTVTVSS VL: DVVMTQTPLSLPVTPGEPASISCRSSQSIVHSNGNTYLEWYLQKPGQSPQLLIYKVSNRFSGVPDRFSGSGSGTDFTLKISRVEAEDVGVYYCFQGSHVLPTFGGGTKVEIK"
0.1,2.98,0.00134,450000,–,–,–,–,"humanized 8H24 hu8H24VHv1/hu8H24VLv2 (antibody, V domains shown, Human IgG; also called 8H24H1L2; hu8H24H1L2) VH: QAQLVQSGAEVKKPGSSVKVSCKASGYTFTSYSMHWVRQAPGQGLEWIGAIYPGNDATSYNQKFKGRATLTVDKSTSTAYMELSSLRSEDTAVYFCAREGYYGSSFEAWFASWGQGTTVTVSS VL: DVVMTQTPSSLPVTPGEPASISCRSSQSIVHSNGNTYLEWYLQKPGQSPQLLIYKVSNRFSGVPDRFSGSGSGTDFTLTISRVEAEDVGVYYCFQGSHVLPTFGGGTKVEIK"
0.07,3.22,0.0015,466000,–,–,–,–,"humanized 8H24 hu8H24VHv2/hu8H24VLv2 (antibody, V domains shown, Human IgG; also called 8H24H2L2) VH: QAQLVQSGAEVVKPGSSVKVSCKASGYTFTSYSMHWVRQAPGQGLEWIGAIYPGNDATSYNQKFKGRATLTVDKSTSTAYMELSSLRSEDTAVYFCAREGYYGSSFEAWFASWGQGTTVTVSS VL: DVVMTQTPSSLPVTPGEPASISCRSSQSIVHSNGNTYLEWYLQKPGQSPQLLIYKVSNRFSGVPDRFSGSGSGTDFTLTISRVEAEDVGVYYCFQGSHVLPTFGGGTKVEIK"
0.07,0.66,–,–,–,–,–,–,"chimeric 5E20 (antibody, human IgG1, kappa, L234A L235A, V domains shown, The entries are described as 'a chimeric 5E20 heavy chain' and 'light chain') VH: EVQLVESGGDLVKPGGSLKLSCAAPGFTFSTYGMSWVRQTPDKRLEWVAIISSGGSYTYYSDTVKGRFTISRDNAKNTLYLQMSSLKSEDTAMYYCSRSSSHWYFDVWGTGTTVTVSS VL: DILMTQSPSSMSVSLGDTVSITCHASQGISSNIGWLQQKPGKSFKGLIYHGTNLKDGVPSRFSGSGSGADFSLTISSLESEDFADYFCVQYAQFPYTFGGGTKLEIKR"
–,–,–,–,11.8,79,1,64,"mouse monoclonal antibody 2C14 (antibody, mouse IgG1, V domains shown, mouse IgG1, kappa) VH: EVQLVESGGDLVKPGGSLKLSCAASGFTFNTHGMSWVRQTPDKSLEWVATISTGGFYTSYPDSVKGRFTISRDNAKNTLFLQMSSLKSEDTAMYYCAKSSSHWYFDVWGTGTTVTVSS VL: DILMTQSPSSMSVSLGDTVSITCHASQGISSNIGWLQQKPGKSFKGLIYHGTNLEDGVPSRFSGSGSGADYSLTISSLEYEDFADYYCVQYAHFPYTFGGGTKLEIK"
–,–,–,–,–,65,0.8,45,"mouse monoclonal antibody 9N18 (antibody, mouse IgG2b, V domains shown, mouse IgG2b, kappa) VH: EIQLQQSGPELVKPGASVKISCKASGYSFTGYYMNWVKQSPEKSLEWIGEINPITGGTTYNQNFKAKATLTVDKSSSTAYLQLRSLTSEDSAVYYCASDYFGSNSWFAYWGQGTLVTVSA VL: DVLMTQTPLSLPVSLGDQASISCRSSQSIVHRNGNTYLEWYLQKPGQSPKLLIYKVSNRFSGVPDRFSGSGSGTDFTLRISRVEAEDLGVYYCFQGSHVPYTFGGGTKLEIK"
